Earlier results on 1 substance are cited in publication PMC8900292.

This series deals with VAMP2 juxtamembrane LD (UniProt P63027).
Chain of UniProt P63027 (P63027 whole entry, looked up): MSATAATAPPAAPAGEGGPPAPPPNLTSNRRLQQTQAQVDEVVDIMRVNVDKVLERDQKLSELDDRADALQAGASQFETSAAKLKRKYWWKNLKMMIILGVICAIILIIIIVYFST

For the substance Munc13-1 MUN (from UniProt Q62768), the Kd (in general, a measure of binding affinity in units of concentration) is 10 µM.
